Source: patent US20140212458A1

Target: BG505.T332N Env on Env-pseudotyped virus (HIV-1 BG505 (clade A))

Q: CD4-IgG2 (Fc fusion) was tested. Which IC50, neutralization of BG505.T332N pseudovirus, TZM-bl cells did it give?
A: 433 ng/mL
